Data on one molecule can be found in PMC9975939.

The test has as its target T1, untagged NDP52 wild type (human), Q13137.
T1 chain: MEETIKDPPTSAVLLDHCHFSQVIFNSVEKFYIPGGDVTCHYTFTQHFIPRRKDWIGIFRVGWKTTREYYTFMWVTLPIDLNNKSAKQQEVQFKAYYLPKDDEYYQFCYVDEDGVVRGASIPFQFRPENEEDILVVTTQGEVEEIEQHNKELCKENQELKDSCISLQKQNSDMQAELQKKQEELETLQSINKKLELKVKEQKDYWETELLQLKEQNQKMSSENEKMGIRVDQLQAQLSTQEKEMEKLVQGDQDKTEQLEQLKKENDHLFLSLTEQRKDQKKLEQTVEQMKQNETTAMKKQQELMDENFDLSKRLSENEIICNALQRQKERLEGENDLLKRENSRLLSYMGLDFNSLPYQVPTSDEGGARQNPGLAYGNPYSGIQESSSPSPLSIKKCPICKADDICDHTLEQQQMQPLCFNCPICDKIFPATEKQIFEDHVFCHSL
The test is described as follows: native gel or EMSA; blue native PAGE (4–16% NativePAGE gel, Coomassie G-250) of recombinant NDP52 WT and Mut, immunoblot. Particulars: remark: other sources report otherwise.

B1: untagged NDP52 wild type, Q13137 1-446 (natural protein)
chain: T1 chain
Regarding B1, the stoichiometry N turned out to be 2.
